Experimental data as given in paper PMC12101541.
pKd: −log10 of the molar value.

Experiments:
[1] = molecular target: GGlFGGn-TgSkp1 (fully glycosylated TgSkp1, GalGlcFucGalGlcNAc glycan at Hyp154) (Toxoplasma gondii); assay: AUC; sedimentation velocity, 50,000 rpm, 20 °C, 50 mM K phosphate (pH 7.4), 25 mM KCl (standard buffer); Sw isotherm fitted with a monomer-dimer self-association model (SedPhat); dimer to monomers
[2] = molecular target: TgSkp1-poly-Ser (TgSkp1 with the CTR replaced by poly-serine) (Toxoplasma gondii); assay: as above
[3] = molecular target: TgSkp1ΔCTR (TgSkp1 lacking the C-terminal region) (Toxoplasma gondii); assay: as above
[4] = molecular target: TgSkp1Δloop (TgSkp1 with the internal disordered loop replaced by GGSG) (Toxoplasma gondii); assay: AUC; sedimentation velocity as in the standard experiment but with 600 mM KCl (high salt, ionic strength of 710 mM); Sw isotherm, monomer-dimer model; dimer to monomers
[5] = molecular target: TgSkp1Δloop (TgSkp1 with the internal disordered loop replaced by GGSG) (Toxoplasma gondii); assay: AUC; sedimentation velocity, 50,000 rpm, 20 °C, 50 mM K phosphate (pH 7.4), 25 mM KCl (standard buffer); Sw isotherm fitted with a monomer-dimer self-association model (SedPhat); dimer to monomers
[6] = molecular target: TgSkp1ΔloopΔCTR (TgSkp1 with the internal loop replaced by GGSG and the CTR deleted) (Toxoplasma gondii); assay: AUC; sedimentation velocity as in the standard experiment but with 600 mM KCl (high salt, ionic strength of 710 mM); Sw isotherm, monomer-dimer model; dimer to monomers
[7] = molecular target: TgSkp1ΔloopΔCTR (TgSkp1 with the internal loop replaced by GGSG and the CTR deleted) (Toxoplasma gondii); assay: AUC; sedimentation velocity, 50,000 rpm, 20 °C, 50 mM K phosphate (pH 7.4), 25 mM KCl (standard buffer); Sw isotherm fitted with a monomer-dimer self-association model (SedPhat); dimer to monomers
[8] = molecular target: full-length TgSkp1 (Skp1 from Toxoplasma gondii), unmodified (Toxoplasma gondii); assay: as above

## GGlFGGn-TgSkp1 (fully glycosylated TgSkp1, GalGlcFucGalGlcNAc glycan at Hyp154) (natural protein)
[1]
  pKd: 6.40
  stoichiometry N: 2

## TgSkp1-poly-Ser (TgSkp1 with the CTR replaced by poly-serine)
[2]
  pKd: 6.05
  stoichiometry N: 2

## TgSkp1ΔCTR (TgSkp1 lacking the C-terminal region) (domain or fragment)
[3]
  pKd: 6.05
  stoichiometry N: 2

## TgSkp1Δloop (TgSkp1 with the internal disordered loop replaced by GGSG) (natural protein)
[4]
  pKd: 5.07
[5]
  pKd: 6.70
  stoichiometry N: 2

## TgSkp1ΔloopΔCTR (TgSkp1 with the internal loop replaced by GGSG and the CTR deleted) (domain or fragment)
[6]
  pKd: 5.72
[7]
  pKd: 5.62
  stoichiometry N: 2

## full-length TgSkp1 (Skp1 from Toxoplasma gondii), unmodified (natural protein)
[8]
  pKd: 7.30
  degree of dissociation at 300 nM: 18%
  stoichiometry N: 2
